Test results: the supplement of paper PMC12042874
± gives the uncertainty stated by the source.

Assay: amyloid nucleation score (Sup35N fusion, yeast selection) (log enrichment); library NNK1; higher = more nucleation; inactive = no reads after selection
Outline: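 Growth for 7 days at 30°C on medium lacking adenine and uracil followed a 24-hour induction with 100 μM copper sulfate of psi-negative yeast expressing peptides of 20 random codons fused to Sup35N. Input and output plasmid inserts were sequenced with Illumina, and sequences with under 100 input reads were excluded. Nucleation score is the DiMSum log enrichment of output over input reads, centred on the mode score of non-aggregating sequences.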

| Substance | amyloid nucleation score |
| --- | --- |
| SNFSG | 0.446 ± 0.66 |
| SNGHNAILVA | inactive |
| SNIFNMGY | 0.187 ± 0.35 |
| SNKTSKDGCEFQVVQLVQRV | -0.059 ± 0.33 |
| SNLVGEVYCNL | 0.914 ± 0.57 |
| SNMNAFYTLEHVMPAKFEIS | 1.07 ± 0.33 |
| SNQSDLMLLMENMIDYMKSL | 1.32 ± 0.39 |
| SNQTLPWYK | 0.043 ± 0.53 |
| SNSSMWAYRVC | 0.497 ± 0.74 |
| SNVVNGLDTYSQPGKGWCVR | 0.581 ± 0.37 |
| SPMMVNVYATDDVDLPSWLM | -0.293 ± 0.47 |
| SPRYQSVWEFVSFQDCTSRW | 0.118 ± 1.2 |
| SQNVPDCVLKTLRFDVPCCR | 1.14 ± 0.4 |
| SQRSMRRRRVRVIKDARYNW | 0.224 ± 0.48 |
| SRCNHICHNYISMFLINCEL | 5.71 ± 0.061 |
| SRCRGSYTSSNSYWPAGDPM | -0.777 ± 1.7 |
| SRDRKVYLAYVYVYTRNVQT | 0.683 ± 0.34 |
| SRGPRFDCPMLVTVPSTSLE | -1.1 ± 2.4 |
| SRHVLLPISFGTV | 0.377 ± 0.61 |
| SRIAMS | 0.368 ± 1 |
| SRLEHRFLICNPELYVNFFM | 6.799 ± 0.047 |
| SRLMLFQIFDAKQIDVNDM | 5.03 ± 0.071 |
| SRLRLGIRTDLG | 0.218 ± 0.54 |
| SRMWMFFDCIISIINMAEDT | 7.449 ± 0.051 |
| SRPDVLYCDIFHFRHQILSF | -0.173 ± 0.75 |

| Substance | amyloid nucleation score |
| --- | --- |
| SRSGSLKCRGAQGFTCY | 0.564 ± 0.52 |
| SRSLPLHCMRHGVRRTGRMA | 0.668 ± 0.57 |
| SRVSNCISLVMYKAKLCSIR | 0.644 ± 0.5 |
| SRVVSYSL | -0.5 ± 0.41 |
| SRYRA | 5.11 ± 0.076 |
| SRYSNDLSDIMGDDESRSAH | 0.136 ± 0.28 |
| SRYWKFRCTFSTKFESTKRS | 3.95 ± 0.17 |
| SRYYASYFGIG | 0.034 ± 0.97 |
| SSCGFMRNVIITMHKADIDR | inactive |
| SSCVTFSYMKSVFRFLPCWW | 1.96 ± 0.092 |
| SSDSVSLYYLISYTPFGRFN | inactive |
| SSFCRLLNIMYSRWGGLGTY | inactive |
| SSFKWLAASWLQGALHTMRG | -0.348 ± 0.79 |
| SSFLFSFWGAIGSIKSTFFW | -0.054 ± 0.24 |
| SSFRLHR | inactive |
| SSFRLQALPVEFHGVNYHLA | 0.182 ± 0.92 |
| SSFYTRFWVGSHMCFAGMPK | 0.203 ± 1.2 |
| SSGFKSAPFSFLRLFLHISR | -1.47 ± 2.4 |
| SSGYGECAFVT | -0.055 ± 0.33 |
| SSIAAIVM | 0.723 ± 0.41 |
| SSKYTCFSDYKKCVYTLWRL | 0.292 ± 0.6 |
| SSLQPLIFMRSIHLIVW | 0.265 ± 0.75 |
| SSLWTCREVTDIFIHNCAMI | 1.21 ± 0.79 |
| SSNLRKTFMSAMHVSSCMV | 0.396 ± 0.56 |
| SSNRLSSMQG | 1.09 ± 0.38 |

| Substance | amyloid nucleation score |
| --- | --- |
| SSNSPCMPVRRTADNPSPYA | 0.239 ± 0.51 |
| SSNWLRY | 0.692 ± 0.66 |
| SSPRTLRGLIYGRIKYYVLE | 1.84 ± 0.35 |
| SSRFDSLFVNNIMIFWVSKF | 5.015 ± 0.048 |
| SSRGRPLQPSIQIKYSFVMY | 4.13 ± 0.095 |
| SSRYFLFLAHTHWLCTMTCP | -0.064 ± 0.8 |
| SSSRV | 0.111 ± 0.42 |
| SSSSYNSR | 0.97 ± 0.62 |
| SSSVCPLHSADSCVSGISAD | 1.73 ± 0.64 |
| SSVCFGYRAIGTIRHMFSKC | 0.311 ± 0.33 |
| SSWYVITATFIKDCGMTARR | 4.03 ± 0.082 |
| SSYCNLVASIL | 0.649 ± 0.53 |
| SSYFMVYYQRVTSCFMVGFL | -0.865 ± 0.48 |
| STALLS | 0.21 ± 0.74 |
| STASQWQCHD | 0.461 ± 0.41 |
| STCNYLDSGGRDRCSFFNCD | 0.078 ± 0.47 |
| STDSLLRWIKPERDGYRFLW | -0.479 ± 0.45 |
| STDVFYLV | -0.669 ± 0.39 |
| STERKYLSLDKSWNVRLVLF | 1.61 ± 0.23 |
| STFAALNVKSCGVCLMWLLD | 0.1 ± 0.84 |
| STFGPCEVLVVQVDGPAYHT | -0.37 ± 0.55 |
| STGPNLKVLVSSKS | -1.66 ± 0.69 |
| STHSDGVGML | -0.805 ± 1.2 |
| STNIGWAMINLKRYPVLRDA | -0.18 ± 0.29 |
| STNWFNYSNGNTVWDIGDYL | 0.4 ± 0.32 |

| Substance | amyloid nucleation score |
| --- | --- |
| STVLATFHVE | 0.041 ± 0.37 |
| STVLQWIIGRPLYARDSLAS | -0.561 ± 0.6 |
| STYSSWQDTRVFNLAMLSI | -0.68 ± 0.85 |
| STYYVVRDFFLDSSTGTVYS | -0.031 ± 0.61 |
| SVACPGLARMGRRSGREYNE | -1.46 ± 0.59 |
| SVCTGRYPSRAHGEGASNTC | 0.08 ± 0.66 |
| SVDRMAYRMCMRNVRLNLCT | 0.962 ± 0.37 |
| SVGDVVYGEFLIAKQSAACV | 0.115 ± 0.44 |
| SVGFDDGPRSGTLNGFVSRR | -0.262 ± 0.6 |
| SVINIGRNMISI | -0.353 ± 0.67 |
| SVISRIKCRASRDGLHHGNH | 0.862 ± 0.28 |
| SVIVLFTIRRSWRPHSFRES | 0.94 ± 0.32 |
| SVLIRALFTFKLRSVERQDY | 3.82 ± 0.069 |
| SVMFQECFVNEFIGVHRCRD | 6.324 ± 0.047 |
| SVPQLVPNHFRVSWANHS | -0.05 ± 1.4 |
| SVRSVRSNPRFTSHLPCSKK | -0.413 ± 0.54 |
| SVRTCFNRYLKQVRVWSYAG | -0.165 ± 1.6 |
| SVSMY | 0.068 ± 0.27 |
| SVTLCKFRKT | -0.197 ± 0.37 |
| SVTLIGFILDLRTGHILWYK | -0.423 ± 0.62 |
| SVVCVVSCYKIGAWLRAGG | 0.648 ± 0.52 |
| SVVIFHHTICLERDAVRQKF | 5.02 ± 0.083 |
| SVVMHSWLLLIVTSGSFMYV | 0.218 ± 0.53 |
| SVWCGSWVYNTLRLNMGTNL | 3.01 ± 0.15 |
| SVWNILLIV | 0.665 ± 0.34 |

| Substance | amyloid nucleation score |
| --- | --- |
| SWASKRCSPCCDGSGFPMYL | -1.37 ± 2.7 |
| SWDLGREYSGHRMTCLVWLV | -0.403 ± 0.68 |
| SWIRNRWHYTQ | -0.141 ± 0.72 |
| SWLIRLSLYWYVNWSCMVGV | -0.009 ± 0.45 |
| SWMCSPRACCLLTFNFECMC | -0.635 ± 0.5 |
| SWNYLVTDAKRRDGGEERVR | -0.851 ± 1.7 |
| SWRTCAPTWKVALFIWMCTS | 3.39 ± 0.17 |
| SWWPDGLNEMSG | 1.11 ± 0.74 |
| SYDISYDFWVNLVAGRLTSM | 1.24 ± 0.6 |
| SYEFVVRSWLSLYLINFKSS | inactive |
| SYGGGYTTSQGYGLGELTKY | 0.543 ± 1.1 |
| SYGMSYSVVWNWCECNSA | 5.23 ± 0.053 |
| SYGNCVRCSLMYKGKHMLNT | 0.022 ± 0.52 |
| SYKNVGRV | 0.273 ± 0.86 |
| SYKVTLVYSRHVVGVKVTRI | 0.233 ± 0.86 |
| SYLMY | -0.533 ± 0.9 |
| SYMFWIPLATQWKRVLNRVW | -0.479 ± 0.54 |
| SYMLVRDTLVLRCSACLLAG | inactive |
| SYNFWLRMAGRCSKM | -0.618 ± 0.6 |
| SYNVMCVGYCIC | 3.4 ± 0.12 |
| SYRFFRGMMYLSHVIDLQSR | -0.307 ± 1.1 |
| SYSIYALGSRLIVEYSYKWI | 0.625 ± 0.39 |
| SYTGHPMNDRWHIG | 3.4 ± 0.074 |
| SYTSRPYFTNIYVDYWFMVC | 6.216 ± 0.05 |
| SYVDRVLSSRSRWMKIVELN | 0.083 ± 0.44 |

| Substance | amyloid nucleation score |
| --- | --- |
| SYVSKSYLYKRGSELQAVLQ | -0.157 ± 0.65 |
| SYVVTVLHNWVWEEGDLEYE | 4.36 ± 0.11 |
| SYYIC | 0.583 ± 0.41 |
| SYYQKCNAKNIF | -0.576 ± 0.4 |
| TAAYRFNESVHVSNSRFMVH | 0.334 ± 0.42 |
| TAGRVITSCWQVLILLVNCG | -0.605 ± 0.54 |
| TALRLTSSSIKIATQVDLKF | 2.06 ± 0.16 |
| TASHFGNKWV | 0.352 ± 0.32 |
| TASNHVVLSHPDSGILGIRA | -0.278 ± 0.42 |
| TASRYLVVRN | 0.875 ± 0.43 |
| TCCNDDKRYIWCIYSRAKMN | -1.55 ± 0.42 |
| TCFVVLYTKMNVFECFDLQV | -0.109 ± 0.51 |
| TCGRGHVTRGYWGTMCGCNG | 1.06 ± 0.72 |
| TCLISCRLPDKGHGSVT | -0.069 ± 0.44 |
| TCQFFRLSNRILQGDYSILM | -0.342 ± 0.48 |
| TCRKFKYPL | 0.372 ± 0.29 |
| TCTFPKVIQSYAGRLAMPGY | -0.135 ± 0.58 |
| TCVGFSGVGKGNSSIKVKEA | 0.351 ± 0.42 |
| TCWVGYYVCW | -0.336 ± 0.53 |
| TDIFSNISYQSGQPATIDYH | 0.176 ± 0.69 |
| TDIVVCSCDGFWKYSYIGGL | 2.18 ± 0.12 |
| TDMLMLIMIRVSLIGRRTFQ | inactive |
| TDNTSFELYIWTDAFLKQTT | 0.208 ± 1 |
| TDNTVVVMHWFHTFSPGARK | 2.08 ± 0.28 |
| TDPLSYTFVTSPVMVTRGSS | -0.942 ± 0.52 |

| Substance | amyloid nucleation score |
| --- | --- |
| TDWARTRSQRHVLHDSPAGL | -0.452 ± 1.4 |
| TEGLKVTLIHTTPLFCP | 0.239 ± 0.42 |
| TEGYVFKCVGKMFLFRFSFA | -0.114 ± 0.36 |
| TEIIFYLVYGWLTFRILGYN | -0.705 ± 0.43 |
| TEIILYSILLSMYDLMFVVI | 0.268 ± 1.4 |
| TEKTVRCDLTWQTHLLLCFA | -0.369 ± 0.83 |
| TERDCRCSFGTVPMCSMGNW | 0.595 ± 0.34 |
| TERDLYDILTKTMGIGVSRW | -0.544 ± 0.57 |
| TETQECVSRYVILGGGAGVS | 0.271 ± 0.71 |
| TFASTS | 0.002 ± 0.36 |
| TFEYDT | 0.332 ± 0.61 |
| TFFRTTCTICCM | 5.01 ± 0.053 |
| TFGNLRMDVRAPTRFKDLLK | 1.27 ± 0.47 |
| TFIVQPFLTENPIASRFESA | 0.063 ± 0.38 |
| TFPGDGRFPKVSKVYDPVLE | inactive |
| TFQCCLDVCASVC | 0.273 ± 0.46 |
| TFQHCLRYWPNHSRLNSCRL | 0.155 ± 0.25 |
| TFRGNRIINQNWGYHCMWWC | 5.733 ± 0.056 |
| TFSDFIQKGWRFIFKYPFRC | 0.686 ± 0.35 |
| TFSFTAYNPCFDSFSTVGLS | -0.147 ± 0.45 |
